Measurements from the supplement of paper PMC11908140.

B1: library; numbered along this chain (parent)
chain: MRKPRAAVGSGHRKQAASQEGRQKHAKNNSQAKPSACDGLARQPEEVVLQASVSSYHLFRDVAEVTAFRGSLLSWYDQEKRDLPWRRRAEDEMDLDRRAYAVWVSEVMLQQTQVATVINYYTGWMQKWPTLQDLASASLEEVNQLWAGLGYYSRGRRLQEGARKVVEELGGHMPRTAETLQQLLPGVGRYTAGAIASIAFGQATGVVDGNVARVLCRVRAIGADPSSTLVSQQLWGLAQQLVDPARPGDFNQAAMELGATVCTPQRPLCSQCPVESLCRARQRVEQEQLLASGSLSGSPDVEECAPNTGQCHLCLPPSEPWDQTLGVVNFPRKASRKPPREESSATCVLEQPGALGAQILLVQRPNSGLLAGLWEFPSVTWEPSEQLQRKALLQELQRWAGPLPATHLRHLGEVVHTFSHIKLTYQVYGLALEGQTPVTTVPPGARWLTQEEFHTAAVSTAMKKVFRVYQGQQPGTCMGSKRSQVSSPCSRKKPRMGQQVLDNFFRSHISTDAHSLNSAAQ

Variants of: B1
Assay: 8OG:A repair function score (normalized; synonymous = 0, nonsense = -1) (normalized log-likelihood score); higher = more repair activity (WT-like)
Settings: with 8OG:A DNA repair reporter (GFP) in HEK-293 MUTYH KO cells
Outline: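 After 72 h, viable mCherry+ cells were split into GFP+ (repair) and GFP− bins in three replicates per tile. These cells were MUTYH knockout HEK-293 cells holding lentiviral MUTYH cDNA NNN codon-scan libraries, kept in 10 pg/ml doxycycline and co-transfected with mCherry plus an 8OG:A GFP repair reporter. Sequencing of tile amplicons gave per-tile Rosace fitness scores, normalized into a repair function score anchored on synonymous and nonsense distributions. Synonymous medians were fixed at 0, nonsense at -1, and variants under 300 counts per million at the start were removed.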
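Further: cells sorted at 72 h after reporter transfection.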

Variant	8OG:A repair function score
A245H	-0.134
L387G	-0.154
P320M	-0.0571
T228L	0.00837
G201H	0.0082
E168T	-0.0102
R81E	-0.678
R336K	-0.0529
A99L	-0.788
L396P	-0.766
V468W	-0.204
T112K	-1.01
G123T	0.0116
Y100I	-1.67
F200T	-0.739
S487E	0.00844
Y120K	0.0493
K463W	-0.075
E319H	-0.0143
D91E	-0.0053
V165P	-1.08
K422C	-0.221
A291L	-0.0339
E46D	0.0496

Variant	8OG:A repair function score
T263M	-0.0448
D502M	-0.0464
S419N	-0.269
C489T	0.00493
D208H	-1.01
L169Y	-0.104
K481N	-2.28e-05
Q484D	-0.0184
N503Y	-0.0151
F330W	-0.017
K463A	-0.157
L411C	0.0617
R60H	-0.196
Y469E	-0.89
E375Y	-0.285
D82P	-0.00741
L369A	0.0443
R281Y	-0.0264
G209E	-0.837
P34Q	0.146
W399D	-0.666
V465G	-0.801
A357P	0.04
V379L	-0.463

Variant	8OG:A repair function score
Q239V	-0.529
E168N	0.0349
F453W	-0.274
S52T	0.00677
S276R	-0.0136
A89M	0.00504
C314G	-0.468
P339F	-0.187
H514C	-0.00794
L325H	-0.0759
K390Q	0.474
E79H	-0.0574
Q472W	0.027
S54Y	0.00243
W128Y	-0.0875
V458T	-0.214
R364L	-0.747
R389W	-0.531
R154E	-1.23
I359M	-0.00943
E319K	-0.0997
Q233N	-0.032
R266F	-0.104
G205I	-0.994

Variant	8OG:A repair function score
V485R	0.0173
W128N	-0.681
P365T	-0.334
W85K	-3
M108G	-1.18
G309P	-0.0923
V468Y	-0.025
R283N	-0.173
V414L	-0.0973
R340V	-0.304
P247T	-0.856
L72C	-0.229
P316N	-0.154
L313K	-0.581
R281E	-0.484
R60D	-0.0771
P442N	-0.426
A445F	-0.672
Q363I	-0.184
K333C	0.053
G248T	-0.939
E433H	-0.0353
G297M	-0.00568
Q144M	0.0906

Variant	8OG:A repair function score
A391T	-0.42
D502Q	-0.0749
D512W	-0.023
R2I	0.124
V414W	-0.504
G372T	-0.157
L370R	-0.775
V458P	-0.535
G170D	0.0788
Y100R	-1.63
V107W	-0.894
E303V	-0.0344
G356C	-0.0641
P339H	0.0544
S296M	-0.0125
M478H	-0.119
G353M	-0.178
T455Y	-0.209
P247I	-0.969
Q232C	-0.188
S486P	0.0275
G444Q	-0.113
S490Q	0.0011
L313M	0.00327

Variant	8OG:A repair function score
E452K	-0.211
A101V	-0.0177
C269M	-1.18
D322M	0.0738
P383Q	0.0121
V468M	-0.0306
V242M	-0.625
V206Y	-1.01
P352E	-0.0129
A196C	-0.233
R69C	-0.33
T260P	-1.17
D94P	-0.157
A461M	-0.276
S367E	0.154
V230H	-0.63
K333D	-0.903
E167Q	0.141
S487D	0.0137
T130C	-0.578
C477A	-0.00821
P244C	-0.39
F376L	-0.608
Q394L	-0.0272

Variant	8OG:A repair function score
C262M	-1.06
R219V	-0.809
K333P	0.038
L370T	-0.332
G222D	-0.733
Q470T	-0.0526
W321K	-0.189
P365Q	-0.147
L355R	-0.00513
S367H	-0.207
A147N	-0.0408
P352S	-0.0991
T406H	0.516
W374I	-0.729
L423C	0.0721
Q358S	-0.152
L158D	-1.18
H407G	-0.0586
T380P	-0.128
A36I	-0.0893
V362H	-0.608
A41H	-0.0884
L83V	-0.316
